According to patent US20210269549A1, “ANTI-SAS1B ANTIBODIES, ASSOCIATED METHODS OF USE, AND COMPOSITIONS AND METHODS FOR DETECTING AND TREATING CANCER” (UNIVERSITY OF VIRGINIA PATENT FOUNDATION, priority 2015, published 2021):
Where a chain is given by its changes, count along the chain named. “Also recorded” adds a separate entry of the source.

B1: SB1: mouse anti-SAS1B monoclonal antibody, IgG2a; VH SEQ ID NO:12, VL SEQ ID NO:13 (antibody, listed as Mus musculus, V domains shown)
VH: EVQLQQSGPELVKPGSSVKISCKASGYTFTDYNMDWVKQSHGKSLEWIGAINPNNGGTSYNQKFKGKATLTVDKSSSTAYMELRSLTSEDSAVYYCATNEYWGQGTTLTVSS
VL: NIVMTQSPKSMSMSVGERVTLSCKASENVGTYVSWYQQKPEQSPKLLIYGASNRYTGVPDRFTGSGSATDFTLTISSVQAEDLADYHCGQSYSYPWTFGGGTKLEIK
B2: SB5: mouse anti-human SAS1B monoclonal antibody, IgG2b; VH SEQ ID NO:16, VL SEQ ID NO:18 (antibody, listed as Mus musculus, V domains shown)
VH: EVQLQQSGPELVKPGSSVKISCKPSGYTFTDYNMVWMKQSHGKSLEWIGAINPNNGGTTYNQKFKGKATLTVDKSSSTAYMELRSLTSEDSAVYYCAPNWDWFAYWGQGTLVTVSA
VL: DVLMTQIPLSLPVSLGDQASISCRSSQSILHSNGNTYLEWYLQKPGQSPKLLIYKVSNRFSGVPDRFSGSGSGTDFTLKISRVEAEDLGVYYCFQGSHVPFTFGSGTKLEIK
B3: SB4: mouse anti-human SAS1B monoclonal antibody, IgG2a; VH SEQ ID NO:16, VL SEQ ID NO:17 (antibody, listed as Mus musculus, V domains shown)
VH: B2 VH
VL: B2 VL with I7T
B4: SB2: mouse anti-human SAS1B monoclonal antibody, IgG2b; VH SEQ ID NO:14, VL SEQ ID NO:15 (antibody, listed as Mus musculus, V domains shown)
VH: B2 VH with P24A, M37V, I51V, T59S, A97V
VL: B2 VL with I7T, I29L, L30V, K50N
B5: SB3: mouse anti-human SAS1B monoclonal antibody, IgG2b; VH SEQ ID NO:14, VL SEQ ID NO:15 (antibody, listed as Mus musculus, V domains shown)
VH: B2 VH with P24A, M37V, I51V, T59S, A97V
VL: B2 VL with I7T, I29L, L30V, K50N

Each molecule was assayed against T1, human SAS1B (Homo sapiens, UniProt Q6HA08) (assay: Immunoprecipitation of SAS1B from HEK293T cells transfected with SAS1B). Settings: not given.
T1 construct: made in house; host or cells: E. coli
T1 sequence (Q6HA08 24-431): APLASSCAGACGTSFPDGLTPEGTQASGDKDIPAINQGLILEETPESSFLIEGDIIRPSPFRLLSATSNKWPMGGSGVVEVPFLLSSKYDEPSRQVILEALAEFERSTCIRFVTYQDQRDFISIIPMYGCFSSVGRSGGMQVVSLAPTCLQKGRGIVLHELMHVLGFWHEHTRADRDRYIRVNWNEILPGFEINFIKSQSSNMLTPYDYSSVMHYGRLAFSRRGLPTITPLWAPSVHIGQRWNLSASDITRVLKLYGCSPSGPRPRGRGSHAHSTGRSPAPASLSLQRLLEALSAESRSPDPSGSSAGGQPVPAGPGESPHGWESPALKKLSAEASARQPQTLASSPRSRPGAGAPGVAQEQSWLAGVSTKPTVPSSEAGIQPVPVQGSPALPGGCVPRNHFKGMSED
Type: binding
Procedure: HEK293T cells were transfected with human SAS1B full length cDNA for 66 h. Immuno-precipitation of SAS1B was completed with SB1, SB2, SB4 and SB5 monoclonal antibodies. Following SAS1B immunoprecipitation, detection was completed with mouse anti-His tag mAb at C-terminus. Immunoprecipitated samples were analyzed by protein staining with Coomassie staining. Immunoprecipitated sample was also analyzed by MS/MS analysis. VH and VL chain CDR1-3 regions were sequenced for the confirmed anti-SAS1B mAbs. Immunoprecipitation was performed with N-terminal mAbs from transfected cells extracted with RIPA/protease inhibitor. Detection of the SAS1B immunoprecipitation product was completed with HRP peroxidase conjugated mouse anti-His mAb at 1:3000 or 1:5000 dilution. HEK293T cells were seeded at 250,000. The cells were transfected with […] of SAS1B-SVA plasmid into each of the two T-75 flasks (at ˜90% confluency) for ˜66 h at 37 C and 5% CO2. Following transfection, two saline washes were completed with 1×HBSS. Lysed cells were incubated with RIPA+protease inhibitor for one hour on ice with mixing to ensure homogenous lysate and supernatant used for IP (RIPA: 25 mM Tris-HCl (pH 7.6), 150 mM NaCl, 1% NP-40, 1% sodium deoxycholate, 0.1% SDS). For the immunoprecipitation, 3 mg magnetic bead coupled protein G were suspended and incubated with […] of each SAS1B monoclonal antibody for 10 minutes. The magnetic bead/antibody complex was washed with PBST once, followed by incubation with […] antigen extract for 20 min. The post-immunoprecipitation sample was saved for comparison. Three 200 mL washes with washing buffer+protease inhibitor were completed. The fourth wash used only 100 mL of wash buffer+protease inhibitor. The magnetic beads were transferred to a new micro-centrifuge tube. 1× Lamelli buffer was added to bead/antibody/antigen complex for subsequent analysis. The sample was boiled at 98° C. for 10 min in 1× Lamelli buffer and the supernatant transferred to a new tube. The immunoprecipitation sample was analyzed by western blot and Coomassie blue staining. The SDS-PAGE samples (pre-IP, IP, and post IP extracts) were resolved with 12% TGX Criterion gels at 30 milliamps for 1 hr. Coomassie stain was added to determine the profile of IP samples. Following SDS-PAGE resolution, bands were transferred to nitrocellulose membrane at 1 Amp for 1 h at 5° C. The membrane was blocked with 5% dry milk/PBST, and incubated with mouse anti-His monoclonal antibody conjugated with HRP for 1 hr at RT at 1:3000 or 1:5000 dilution. The membranes were imaged with TMB solution.
A unique ˜52 kD band was recovered in SB5 IP. SB5 (IgG2b) has a different isotype than SB1 (IgG2a), and 3A7 (IgG1). The ˜52 kD band from the SB5 immunoprecipitation was isolated, restained with Coomassie blue and submitted for MS/MS to verify protein identity. The MS/MS nanospray ion source was operated at 2.5 kV. The digest was analyzed using the rapid switching capability of the instrument acquiring a full screen mass spectrum to determine peptide molecular weights followed by product ion spectra to determine amino acid sequence in sequential scans. This mode of analysis produces about 20,000 MS/MS spectra of ions ranging in abundance over several orders of magnitude. Not all MS/MS spectra are derived from peptides. The data were analyzed using the Sequest search algorithm against Uniprot Human and SwissProt.

| Molecule | Depletion of SAS1B in post IP sample compared to starting material | MS/MS analysis of the IP sample (~52 kD band) |
| --- | --- | --- |
| B1 | relative depletion of antigen in post IP samples |  |
| B2 | relative depletion of antigen in post IP samples | confirmed the specificity of the mAb for Human SAS1B protein |
| B3 | clear relative reduction of SAS1B |  |

Same assay, conditions: HEK293T extract, western blot detection with anti-His mAb

| Molecule | Pull down (immunoprecipitation) of SAS1B |
| --- | --- |
| B1 | pulled down |
| B4 | pulled down recombinant SAS1B |
| B2 | pulled down; also recorded: immunoprecipitate “native” SAS1B |
| B3 | pulled down recombinant SAS1B; also recorded: immunoprecipitate “native” SAS1B |
| B5 | immunoprecipitate “native” SAS1B |

These molecules were tested against T2, SAS1B extracellular domain (aa 164-431) polypeptide (Homo sapiens, UniProt Q6HA08) (assay: Western blot with mammalian cell-expressed recombinant SAS1B, extracellular domain). Settings: not given.
T2 construct: SAS1B extracellular domain (aa 164-431) polypeptide; made in house
T2 sequence (Q6HA08 164-431): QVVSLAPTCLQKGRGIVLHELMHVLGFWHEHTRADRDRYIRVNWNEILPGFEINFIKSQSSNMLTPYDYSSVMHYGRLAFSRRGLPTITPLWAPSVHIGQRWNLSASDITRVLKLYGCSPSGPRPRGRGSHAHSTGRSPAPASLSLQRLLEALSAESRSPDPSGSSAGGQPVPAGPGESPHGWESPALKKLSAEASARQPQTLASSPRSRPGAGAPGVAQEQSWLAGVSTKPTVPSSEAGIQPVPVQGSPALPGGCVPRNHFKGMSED
Type: binding
Procedure: (§1) SAS1B monoclonal antibodies were analyzed with mammalian cell-expressed recombinant SAS1B by western blotting.

| Molecule | Reaction with SAS1B extracellular domain (aa 164-431) polypeptide |
| --- | --- |
| B1 | none of the them reacted |
| B4 | none of the them reacted |
| B2 | none of the them reacted |
| B3 | none of the them reacted |
| B5 | none of the them reacted |

These molecules were tested against T3, full-length SAS1B splice variant A polypeptide (Homo sapiens, UniProt Q6HA08) (assay: Western blot with mammalian cell-expressed recombinant SAS1B, full length). Settings: not given.
T3 construct: made in house
T3 sequence (Q6HA08 24-431): T1 sequence (Q6HA08 24-431)
Type: binding
Procedure: as §1

| Molecule | Reaction with full-length SAS1B splice variant A polypeptide |
| --- | --- |
| B1 | reacted with the full-length SAS1B splice variant A polypeptide |
| B4 | reacted with the full-length SAS1B splice variant A polypeptide |
| B2 | reacted with the full-length SAS1B splice variant A polypeptide |
| B3 | reacted with the full-length SAS1B splice variant A polypeptide |
| B5 | reacted with the full-length SAS1B splice variant A polypeptide |

What follows are molecules tested against T1, human SAS1B (assay: Western blot of human SAS1B probed with anti-human SAS1B murine mAbs). Settings: not given.
Type: binding
Source text: A western blot of human SAS1B and mouse SAS1B was probed with anti-human SAS1B murine monoclonal antibodies SB1, SB2, SB3, SB4, SB5, SB6, and SB7.

| Molecule | Reactivity on western blot of human SAS1B and mouse SAS1B | Specificity in western blot for human SAS1B antigen in an E. coli protein background |
| --- | --- | --- |
| B1 | reacts with both human and mouse SAS1B | demonstrated specificity |
| B4 | specific to the human SAS1B only | demonstrated specificity |
| B2 | specific to the human SAS1B only | demonstrated specificity |
| B3 | specific to the human SAS1B only | demonstrated specificity |
| B5 | specific to the human SAS1B only | demonstrated specificity |

Same assay, conditions: Table 1

| Molecule | Specifically binds human SAS1B (and not mouse SAS1B) |
| --- | --- |
| B4 | Yes |
| B2 | Yes |
| B3 | Yes |
| B5 | Yes |
